Measured values reported in the supplement of paper PMC12042874.
± gives the uncertainty stated by the source.

Experiment: amyloid nucleation score (Sup35N fusion, yeast selection) (log enrichment); library NNK3; higher = more nucleation; inactive = no reads after selection
Procedure, shortened: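 For the nucleation score, DiMSum gave the log enrichment of output over input reads, centred on the mode score of non-aggregating sequences. Psi-negative yeast expressing Sup35N fused to peptides of 20 random codons were induced with 100 μM copper sulfate for 24 hours and grown 7 days at 30°C on medium lacking adenine and uracil. Input and output plasmid inserts were Illumina-sequenced, and sequences with under 100 input reads were excluded.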
For DLRGETNSYSGVCQERK, the amyloid nucleation score was 0.104 ± 0.69. With DLSRTSAVSVRKRVCVFSLH the amyloid nucleation score was “inactive”. With DLTMVQLMIFMLIIIFFNLL the amyloid nucleation score was “inactive”. For DLVCTSLTRVAYRELIVWWF, the amyloid nucleation score was “inactive”. For DLVFWTINWSPGAHGTTSSG, the amyloid nucleation score was “inactive”. With DMVLLWQEFDCGKVACLSGG the amyloid nucleation score was “inactive”. With DMYPFPVCR the amyloid nucleation score was “inactive”. In the case of DNSFSPLASGLYQLKGVELI, the amyloid nucleation score is reported as “inactive”. For DNSVNKYKKTNVSVISARVR, the amyloid nucleation score was “inactive”. In the case of DPTILSKVMLMEDTVKAREL, the amyloid nucleation score is reported as “inactive”. With DQGLNC the amyloid nucleation score was “inactive”. Work on DQSNSSEGILCYNLCVLMTE yielded an amyloid nucleation score of 2.43 ± 0.072. In the case of DRAFYYTLKYLRD, the amyloid nucleation score is reported as “inactive”. In the case of DRAMFYDALDNARVISKLRG, the amyloid nucleation score is reported as “inactive”. In the case of DRDMVCMSEL, the amyloid nucleation score is reported as “inactive”. DRGSMSHILASVSTFNVYIS showed an amyloid nucleation score of 1.2 ± 0.1. With DRILAYKTYLGNYLLVVLYN the amyloid nucleation score was “inactive”. For DRNSYVMCYPWGVVWCNHKS, the amyloid nucleation score was 1.03 ± 0.14. For DRRKAEFILTMGPEWYQQLN, the amyloid nucleation score was “inactive”. For DRTMLFVTCFNFRRSS, the amyloid nucleation score was 1.64 ± 0.078. In the case of DRVGRRLIGLRLAQLLGERF, the amyloid nucleation score is reported as “inactive”. With DSASLGLNLP the amyloid nucleation score was “inactive”. In the case of DSDVWEPCFELEESKL, the amyloid nucleation score is reported as “inactive”. In the case of DSFNLSDSGWSTLYIRAWDG, the amyloid nucleation score is reported as “inactive”. With DSFRHEGRVWLWYSSTTKRF the amyloid nucleation score was “inactive”. With DSGSHNDCNGCSNY the amyloid nucleation score was “inactive”. In the case of DSGVSEQWGGGIELILSWCL, the amyloid nucleation score is reported as “inactive”. With DSICDTCYAVGCLPRVCWVV the amyloid nucleation score was “inactive”. For DSIVICQFIFDIKFLDKRKC, the amyloid nucleation score was 1.77 ± 0.085. With DSLKSKFSKVLGPLNRACFY the amyloid nucleation score was “inactive”. With DSNLVFFGSIFFTVLMWLTK the amyloid nucleation score was “inactive”. For DSNWRNMRGLHFY, the amyloid nucleation score was “inactive”. In the case of DTDWGRMWQGGSVYGYAFCA, the amyloid nucleation score is reported as “inactive”. For DTLPHAVKLIEKM, the amyloid nucleation score was “inactive”. For DTMNLRWSVWRRHVWCLTGE, the amyloid nucleation score was “inactive”. With DTREN the amyloid nucleation score was “inactive”. In the case of DVARPCSI, the amyloid nucleation score is reported as “inactive”. With DVGAPCGRFRPHFTNTCLDV the amyloid nucleation score was “inactive”. In the case of DVGMGRHGKAMK, the amyloid nucleation score is reported as “inactive”. For DVGYSDMLVA, the amyloid nucleation score was “inactive”. With DVLGCPNMEVCWSGFLSQNY the amyloid nucleation score was “inactive”. In the case of DVTYECGRS, the amyloid nucleation score is reported as “inactive”. For DYALALVFAYCYEDNRMCCP, the amyloid nucleation score was “inactive”. With DYITYVYYVSVRF the amyloid nucleation score was -0.124 ± 0.82. In the case of DYTSYILLS, the amyloid nucleation score is reported as “inactive”. In the case of DYYIAPRVPYHVTTWNKDYL, the amyloid nucleation score is reported as “inactive”. With ECLKVRW the amyloid nucleation score was “inactive”. For ECSRNAVCF, the amyloid nucleation score was “inactive”. In the case of EDNTKLRSWGELLGVCGKLS, the amyloid nucleation score is reported as “inactive”. With EERIT the amyloid nucleation score was “inactive”. With EFAEMHTAVLVERISSKVII the amyloid nucleation score was “inactive”. For EFFSCYTEYPFRPAFLILTT, the amyloid nucleation score was “inactive”. For EFFYINAMPVLYIDPYTSCF, the amyloid nucleation score was “inactive”. Work on EFGLRWMS yielded an amyloid nucleation score of 0.447 ± 0.34. With EFPRGLGSR the amyloid nucleation score was -0.236 ± 1. In the case of EFVVCTQCRVCDLIAFLGRN, the amyloid nucleation score is reported as 2.84 ± 0.065. In the case of EGFYTFALGRICGFWSYNFC, the amyloid nucleation score is reported as 1.23 ± 0.14. Substance EGGMTTFYFC has an amyloid nucleation score of 2.13 ± 0.093. With EGRDQDNIPLMNTTGMCFGA the amyloid nucleation score was “inactive”. With EGSYVYIKDYI the amyloid nucleation score was “inactive”. In the case of EGWIRVFTEFNFSS, the amyloid nucleation score is reported as 0.263 ± 0.46. For EHFRGRVLVRCLL, the amyloid nucleation score was “inactive”. With EHLRMCNLATIKLILLNVHP the amyloid nucleation score was “inactive”. For EIAVVRKVLYPYCRYVLICS, the amyloid nucleation score was “inactive”. For EILRMCH, the amyloid nucleation score was “inactive”. With EIRRCTPCLLWVLLLFAINR the amyloid nucleation score was “inactive”.
